Publication PMC8345930, “Quaternary Structure and Hetero-Oligomerization of Recombinant Human Small Heat Shock Protein HspB7 (cvHsp)” (International Journal of Molecular Sciences, 2021)
Numbering of substitutions follows the chain as printed. Names may count otherwise.

B1: Δ13 mutant of HspB7 (lacking the first 13 residues) (domain or fragment)
chain: not shown
notes: HspB7 (cvHsp), human, lacking the first 13 residues; made by PCR from the pET23b(+) HspB7 plasmid (forward primer with an NdeI site, ATG before the codon of residue 14); The printed forward primer places a start codon (Met) directly before residue 14; source: E. coli Rosetta2 (DE3) pLysS, purified
B2: Cys-mutant of HspB8 (C10S/C99S/C195S/N138C) (natural protein, human, UniProt Q9UJY1 1-196, looked up)
chain: MADGQMPFSSHYPSRLRRDPFRDSPLSSRLLDDGFGMDPFPDDLTASWPDWALPRLSSAWPGTLRSGMVPRGPTATARFGVPAEGRTPPPFPGEPWKVSVNVHSFKPEELMVKTKDGYVEVSGKHEEKQQEGGIVSKCFTKKIQLPAEVDPVTVFASLSPEGLLIIEAPQVPPYSTFGESSFNNELPQDSQEVTST
notes: HspB8, human, with the four mutations C10S/C99S/C195S/N138C; single Cys in the β7 strand at the position homologous to Cys137 of HspB1; also called HspB8 Cys; HspB8 Cys^Ox
B3: HspB7 with Cys126 modified by iodoacetamide (natural protein)
chain: not shown
modifications: Cys126 modified by iodoacetamide
notes: HspB7 (cvHsp), human; full copy from Addgene #63108 in pET23b(+); the single SH group (Cys126) modified by iodoacetamide; Same construct as m1, chemically modified at Cys126; also called SH Mod HspB7-L
B4: recombinant human small heat shock protein HspB7 (cvHsp), wild type, untagged (natural protein)
chain: not shown
notes: HspB7 (cvHsp), human; full copy recloned from Addgene #63108 into pET23b(+) at NdeI and XhoI; single Cys126; calculated monomer weight 18.6 kDa; HspB7-D (small oligomers, probably dimers) and HspB7-L (mostly large oligomers) are two oligomeric preparations of the same construct; the assays tell them apart; also called cardiovascular Hsp; HspB7-D; source: E. coli Rosetta2 (DE3) pLysS, purified …
B5: ΔSer mutant of HspB7 (lacking the polySer sequence, residues 17–29) (natural protein)
chain: not shown
notes: source: E. coli Rosetta2 (DE3) pLysS, purified
B6: Cys-mutant of HspB6 (C46S/E116C) (natural protein, human, UniProt O14558 1-160, looked up)
chain: MEIPVPVQPSWLRRASAPLPGLSAPGRLFDQRFGEGLLEAELAALSPTTLAPYYLRAPSVALPVAQVPTDPGHFSVLLDVKHFSPEEIAVKVVGEHVEVHARHEERPDEHGFVARCFHRRYRLPPGVDPAAVTSALSPEGVLSIQAAPASAQAPPPAAAK
notes: HspB6, human, with the double mutation C46S/E116C; single Cys in the β7 strand at the position homologous to Cys137 of HspB1; also called HspB6 Cys; HspB6 Cys^Ox
B7: wild-type HspB6 (natural protein, human, UniProt O14558 1-160, looked up)
chain: B6 chain with S46C, C116E
notes: HspB6, human, full-size wild type; The abstract says that the wild-type HspB6 was used in the ELISA

Experiments:
[1] = target: the molecule itself; experiment: SEC; Δ13 and ΔSer deletion mutants of HspB7; analytical Superdex 200 Increase 10/30 GL, 50 mM phosphate pH 7.4, 150 mM NaCl
[2] = target: the molecule itself; experiment: cross-linking; disulfide cross-linking: reduced proteins alone or in equimolar mixture (15 µM each), 1 h at 42 °C, dialysed overnight at 37 °C against 50 mM Tris-HCl pH 8.0, 50 mM KCl, 0.1 mM PMSF; read by SDS-PAGE (HspB8) or urea gel electrophoresis (HspB6)
[3] = target: the molecule itself; experiment: SEC; HspB7-L (0.6 mg/mL) reduced with 3 mM DTT, Cys126 modified with 8 mM iodoacetamide, then analytical SEC on Superdex 200 Increase
[4] = target: the molecule itself; experiment: SEC; HspB7-D preparation (flow-through of phenyl sepharose, Fraction 1); analytical Superdex 200 Increase 10/30 GL, 50 mM phosphate pH 7.4, 150 mM NaCl; 20, 50 or 100 μg loaded
[5] = target: B4; experiment: SEC; oxidised (disulfide cross-linked) proteins alone or in equimolar mixture on Superdex 200 Increase GL 10/300; profile of the mixture compared with the arithmetic sum of the isolated proteins; conditions: both partners purified
[6] = target: B4; experiment: ELISA; sandwich: plate coated with monoclonal mouse anti-HspB6 antibody (clone 20-6) as capture; HspB6, HspB7 or their equimolar mixture added (25-400 ng of each protein per well), 1 h; HspB7 detected by rabbit polyclonal anti-HspB7 and HRP-conjugated anti-rabbit antibodies; conditions: both partners purified

Does B1 bind [1]?
Result: binds

Does B2 bind [2]?
Result: binds

Does B3 bind [3]?
Result: binds

With B4 as the binder, how does the “stoichiometry N” value [4] read?
The value was about 2.

Does B5 bind [1]?
Result: binds

Does B6 bind [5]?
Result: binds

Does B6 bind [2]?
Result: binds

Does B7 bind [6]?
Result: binds
